Earlier results, collected in PMC12892997.

Legend:
[1] = molecular target: SARS-CoV-2 spike protein RBD (Severe acute respiratory syndrome coronavirus 2) (UniProt P0DTC2)
[2] = molecular target: SARS-CoV-2 spike protein (Severe acute respiratory syndrome coronavirus 2) (UniProt P0DTC2)

Chain of GRP78 (P11021 19-654): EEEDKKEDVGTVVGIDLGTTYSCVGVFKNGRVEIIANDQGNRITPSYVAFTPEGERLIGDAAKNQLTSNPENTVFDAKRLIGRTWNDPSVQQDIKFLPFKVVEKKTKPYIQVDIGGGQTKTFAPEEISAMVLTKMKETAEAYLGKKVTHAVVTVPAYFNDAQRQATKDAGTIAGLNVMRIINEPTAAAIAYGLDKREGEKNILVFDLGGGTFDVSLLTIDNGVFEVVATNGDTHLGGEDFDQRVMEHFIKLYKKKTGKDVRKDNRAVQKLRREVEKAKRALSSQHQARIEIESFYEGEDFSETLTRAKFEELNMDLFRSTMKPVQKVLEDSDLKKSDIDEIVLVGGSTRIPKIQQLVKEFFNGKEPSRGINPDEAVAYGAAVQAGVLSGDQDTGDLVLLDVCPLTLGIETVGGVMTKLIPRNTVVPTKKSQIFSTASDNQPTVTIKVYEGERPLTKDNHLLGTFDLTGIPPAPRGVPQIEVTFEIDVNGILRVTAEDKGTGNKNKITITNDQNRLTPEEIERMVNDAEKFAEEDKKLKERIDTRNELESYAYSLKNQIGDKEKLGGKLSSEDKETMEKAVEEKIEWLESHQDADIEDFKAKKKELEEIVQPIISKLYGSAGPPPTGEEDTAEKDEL

Row | Substance | Kd [1] [nM] | Kd [2] [nM]
1 | CD4 N-terminal domain (from UniProt P01730) | 24.5 | –
2 | GRP78 (from UniProt P11021) | – | 55.2
